Results as given in PMC4258113 (Journal of proteome research, 2013).
Where no end group is shown, it is not given here. Me3 = trimethyl-lysine (trimethylated lysine)

T1: GST-tagged chromodomain (a.a. 1-90) of Drosophila melanogaster polycomb protein (Drosophila melanogaster, UniProt P26017 1-90)
T1 sequence (looked up): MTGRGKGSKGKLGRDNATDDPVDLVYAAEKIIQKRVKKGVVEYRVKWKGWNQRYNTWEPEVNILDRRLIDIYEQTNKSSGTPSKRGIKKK


Target: T1, GST-tagged chromodomain (a.a. 1-90) of …
Assay: peptide or protein array

Row | binding result | Binder
1 | binds | PRKQLATK(Me3)A [trimethylated histone peptide PRKQLATKA (H3.3, lysine site 23)]
2 | binds | LATKAARK(Me3)S [trimethylated histone peptide LATKAARKS (H3.3, lysine site 27)]
3 | binds | DSGKAKAK(Me3)A [trimethylated histone peptide DSGKAKAKA (H2AV, lysine site 15)]
4 | binds | RTKQTARK(Me3)S [trimethylated histone peptide RTKQTARKS (H3.3, lysine site 9)]
5 | binds | ASKDLKVK(Me3)R [trimethylated histone peptide ASKDLKVKR (H2AZ, H2AV, lysine site 79)]

Second part, the binder before the results:

Row | Binder | binding result
6 | IQAVLLPK(Me3)K [trimethylated histone peptide IQAVLLPKK (H2A1 and other H2A, lysine site 117)] | binds
7 | EGTKAVTK(Me3)Y [trimethylated histone peptide EGTKAVTKY (H2B1A and other H2B, lysine site 117)] | binds
8 | REIRRYQK(Me3)S [trimethylated histone peptide REIRRYQKS (H3.3, lysine site 56)] | binds
9 | GGAKRHRK(Me3)V [trimethylated histone peptide GGAKRHRKV (H4, lysine site 20)] | binds
10 | RIHRLLRK(Me3)G [trimethylated histone peptide RIHRLLRKG (H2A1A, lysine site 35)] | binds
11 | MDVVYALK(Me3)R [trimethylated histone peptide MDVVYALKR (H4, lysine site 91)] | binds
12 | GRIHRHLK(Me3)S [trimethylated histone peptide GRIHRHLKS (H2AZ, lysine site 37)] | binds
